Changes are numbered by the printed parent chain.
B1: humanized antibody hu43 (antibody, human IgG4 S228P, kappa, V domains shown)
VH: QIQLVQSGAEVKKPGASVKISCKASGYIFTNYGMNWMRQAPGQGLEWMGWINDHTGEPTYADKFQGRVTFTLDTSASTAYMELSRLRSDDTAVYYCANYGFGYFDYWGQGTLVTVSS
VL: DVVMTQSPLSLPVTLGQPASISCRSSQSLVHSNGNSYLHWYLQKPGQSPQLLIYKVSNRFSGVPDRFSGSGSGTDFTLKISRVEAEDVGVYYCSQSTHVPYTFGQGTKLEIKR
B2: humanized antibody hu31 (antibody, human IgG4 S228P, kappa, V domains shown)
VH: B1 VH with I2V, I20V, A76I
VL: B1 VL
notes: Humanized from ch1
B3: humanized antibody hu44 (antibody, human IgG4 S228P, kappa, V domains shown)
VH: B1 VH
VL: B1 VL with Y92F
B4: humanized antibody hu59 (antibody, human IgG4 S228P, kappa, V domains shown)
VH: QVQLQESGPGLVKPSETLSLTCTVTGYSISSDYAWSWIRQPPGKGLEWIGFISYSGPTSYNPSLKSRVTISRDTSKNQFSLKLSSVTAADTAVYYCARGGDGDSFDYWGQGTLVTVSS
VL: DVVMTQSPLSLPVTLGQPASISCRSSQSIVHSNGNTYLDWYLQKPGKSPKLLIYKVSNRFSGVPDRFSGSGSGTDFTLKISRVEAEDLGVYYCFQGSHFPTFGQGTKLEIKR
B5: humanized antibody hu60 (antibody, human IgG4 S228P, kappa, V domains shown)
VH: B4 VH
VL: B4 VL with K47Q, D75S
B6: humanized antibody hu250 (antibody, human IgG4 S228P, kappa, V domains shown)
VH: B4 VH with T25S, S30T, S80F, K82Q, S84K, L113T
VL: B4 VL with S7T, P12S, L15P, R24K, K47Q, L88V, Q104G, L108V
B7: chimeric antibody ch1 (antibody, V domains shown)
VH: QIQLVQSGPELKKPGETVKISCKASGYIFTNYGMNWMKQAPGKGLKWMGWINDHTGEPTYADDFKGRFAFSLETSASTAYLQINNLKKEDTATYFCANYGFGYFDYWGQGTTLTVSS
VL: DVVMTQTPLSLPVSLGDQASISCRSSQSLVHSNGNSYLHWYLQKPGQSPKLLIYKVSNRFSGVPDRFSGSGSGTDFTLKISRVEAEDLGVYFCSQSTHVPYTFGGGTKLEIK
B8: chimeric antibody ch2 (antibody, V domains shown)
VH: B7 VH
VL: B7 VL with M4V, S26G, N35H, S36T, L38F, V90I
B9: chimeric antibody ch7 (antibody, V domains shown)
VH: QVQLKESGPGLVAPSQSLSITCTVSGFSLINYDIHWLRQPPGKGLEWLGVIWAGGRTHSDSALMSRLSISKDNSKSQVFLNVHSLRPEDTAIYYCAREGGDYYKYLDFWGQGTTLTVSS
VL: DVKMTQSPSSMYASLGERVTITCKASHDINSYLSWFQQKPGKSPKTLIYRANGLVDGVPSRFSGSGSGQDYSLTISSLEYEDMGVYYCLQYEMLPLTFGAGTKLELK
B10: chimeric antibody ch16 (antibody, V domains shown)
VH: DVQLQESGPGLVKPSQSLSLTCTVTGYSITSDYAWSWIRQFPGNKLEWMAFISYSGPTSYNPSLKSRVSITRDTSKNQFFLQLKSVTTEDTATYYCARGGDGDSFDYWGQGTTLTVSS
VL: DVLMTQTPLSLPVSLGDQASISCRSSQSIVHSNGNTYLDWYLQKPGQSPKLLIYKVSNRFSGVPDRFSGSGSGTSFTLKISRVEAEDLGVYYCFQGSHFPTFGGGTKLEIK
B11: chimeric antibody ch4 (antibody, V domains shown)
VH: B7 VH
VL: B10 VL

The molecules below were run against T1, recombinant human IL-17A-mFc protein (human, UniProt Q16552 24-155, Biotinylated before the blocking assays of Examples 9 and 12 (sites not given); disulfide-linked dimer through IL-17A and the Fc.) (assay: ELISA, human IL-17A-mFc coated (method of Example 8)).
T1 construct: also called recombinant fusion protein IL-17A-mFc
T1 sequence: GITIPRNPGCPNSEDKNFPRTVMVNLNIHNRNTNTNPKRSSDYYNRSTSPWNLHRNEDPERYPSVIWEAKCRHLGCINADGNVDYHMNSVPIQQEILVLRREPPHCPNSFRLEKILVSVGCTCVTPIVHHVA
Protocol: (§1) The binding specificity of the chimeric antibodies to human IL-17A was determined by conventional ELISA. Namely, 0.5 μg/mL of human IL-17A-mFc was immobilized on a 96-well plate and incubated for 60-90 minutes at 37° C. The solution in wells was then discarded, and the wells were washed 3 times with washing buffer, and blocked for 60 minutes with PBS containing 2% BSA. The plate was washed 3 times with washing buffer, and added with diluted chimeric antibodies at different concentrations. The antibodies were incubated at 37° C. for 60 minutes. The plate was then washed 3 times with washing buffer, and added with 10000-fold diluted biotinylated anti-IgG4 antibody. The system was incubated at 37° C. for 1 hour, washed three times with washing buffer, added with HRP-Strep 10000-fold diluted with washing buffer, and incubated at room temperature for 1 hour. After 3 washes with washing buffer, 100 μL of TMB substrate was added for color development. The system was incubated at room temperature for 30 minutes, and the reaction was terminated with 100 μL of 2 M hydrochloric acid solution. The absorbance at 450 nm was measured by a plate reader.
The binding specificity of the humanized antibodies to human IL-17A was determined by conventional ELISA. The method and procedures are described in Example 8.

| Molecule | EC50 |
| --- | --- |
| B1 | 0.00864 µg/mL |
| B2 | 0.00813 µg/mL |
| B3 | 0.00676 µg/mL |
| B4 | 0.0061 µg/mL |
| B5 | 0.00578 µg/mL |
| B6 | 0.00635 µg/mL |

These molecules were tested against T1, recombinant human IL-17A-mFc protein (assay: ELISA, human IL-17A-mFc (0.5 µg/mL) coated, biotinylated anti-IgG4 detection).
Protocol: as §1

| Molecule | EC50 |
| --- | --- |
| B7 | 0.00662 µg/mL |
| B8 | 0.00517 µg/mL |
| B9 | 0.04 µg/mL |
| B10 | 0.0154 µg/mL |
| B11 | 0.0885 µg/mL |

These molecules were tested against T1, recombinant human IL-17A-mFc protein (assay: competitive FACS: blocks binding of biotinylated human IL-17A-mFc to IL-17RA on 293F cells).
Protocol: (§2) The blocking of binding of IL-17A to IL-17RA on cells was detected by a competitive cell-based flow cytometry (FACS) assay. Briefly, chimeric antibody dilutions of different concentrations (3-fold diluted from 10 μg/mL) were mixed with the pre-biotinylated human IL-17A-mFC (3 μg/mL) obtained in Example 1, and incubated at room temperature for 30 minutes. […] After 3 washes with PBS, 5 μg/mL of anti-mouse IgG was added and the system was incubated at room temperature for 30 minutes.
The blocking of binding of IL-17A to IL-17RA on cells was detected by a competitive cell-based flow cytometry (FACS) assay. The method and procedures are described in Example 9.

| Molecule | IC50 |
| --- | --- |
| B1 | 0.781 µg/mL |
| B2 | 0.868 µg/mL |
| B3 | 0.829 µg/mL |
| B4 | 0.467 µg/mL |
| B5 | 0.483 µg/mL |
| B6 | 0.578 µg/mL |

What follows are molecules tested against T1, recombinant human IL-17A-mFc protein (assay: competitive FACS: blocks binding of biotinylated human IL-17A-mFc (3 µg/mL) to IL-17RA on 293F cells).
Protocol: as §2

| Molecule | IC50 |
| --- | --- |
| B7 | 4.46 µg/mL |
| B8 | 3.15 µg/mL |
| B9 | 1.22 µg/mL |
| B10 | 1.45 µg/mL |

What follows are molecules tested against T2, human IL-17RA on stable IL-17RA 293F cell lines (human) (UniProt Q96F46) (assay: FACS, 3 µg/mL IL-17A-mFc on stable IL-17RA 293F cells, anti-mouse IgG detection; control group (1% BSA, no IL-17A-mFc) gave 308).
T2 sequence (looked up): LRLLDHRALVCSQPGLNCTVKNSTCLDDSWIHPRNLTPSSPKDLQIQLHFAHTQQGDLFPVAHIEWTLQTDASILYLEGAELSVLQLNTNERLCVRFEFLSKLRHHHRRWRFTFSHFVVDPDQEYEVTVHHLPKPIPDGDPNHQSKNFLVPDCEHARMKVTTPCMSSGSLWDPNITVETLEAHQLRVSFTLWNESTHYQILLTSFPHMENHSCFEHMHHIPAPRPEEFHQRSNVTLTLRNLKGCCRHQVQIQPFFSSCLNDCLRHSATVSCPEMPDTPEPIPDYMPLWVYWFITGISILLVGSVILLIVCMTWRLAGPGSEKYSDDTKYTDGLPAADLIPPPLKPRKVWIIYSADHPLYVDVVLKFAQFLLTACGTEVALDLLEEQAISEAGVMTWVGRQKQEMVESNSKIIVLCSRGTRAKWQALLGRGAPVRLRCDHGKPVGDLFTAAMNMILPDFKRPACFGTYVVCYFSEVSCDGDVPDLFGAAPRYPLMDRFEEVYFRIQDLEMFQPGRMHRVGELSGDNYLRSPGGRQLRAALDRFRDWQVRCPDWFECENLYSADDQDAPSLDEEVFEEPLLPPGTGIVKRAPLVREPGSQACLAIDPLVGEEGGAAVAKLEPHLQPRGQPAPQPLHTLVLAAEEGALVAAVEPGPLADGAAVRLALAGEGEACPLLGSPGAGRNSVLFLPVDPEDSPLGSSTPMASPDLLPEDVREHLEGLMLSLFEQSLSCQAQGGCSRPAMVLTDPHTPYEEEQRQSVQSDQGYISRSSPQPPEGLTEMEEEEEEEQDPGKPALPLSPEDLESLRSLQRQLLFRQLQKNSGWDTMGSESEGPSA

| Molecule | MFI (mean fluorescence intensity) |
| --- | --- |
| recombinant human IL-17A-mFc protein (from UniProt Q16552 24-155) (Fc fusion) | 7700 MFI |
